Results: publication PMC4263667, “Nanobody Mediated Inhibition of Attachment of F18 Fimbriae Expressing Escherichia coli” (PLoS ONE, 2014)

T1: FedF_(15–165), N-terminal lectin domain of the F18 fimbrial tip adhesin FedF (Escherichia coli (F18-fimbriated …, NT647 on surface exposed amine groups (in the MST only)))
T1 construct: also called FedF lectin domain
T1 chain: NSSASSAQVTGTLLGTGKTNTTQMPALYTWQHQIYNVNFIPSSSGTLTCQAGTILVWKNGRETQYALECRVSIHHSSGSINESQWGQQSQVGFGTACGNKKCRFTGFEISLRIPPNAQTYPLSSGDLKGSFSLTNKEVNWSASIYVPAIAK

B1: NbFedF12 (VHH)
VHH: QVQLQESGGGSVQAGGSLRLSCAASGNTKSYWMGWFRQAPGKEREGVAVIAGGGAFTYYAESVKGRFTISQDNTKDTVYLAMNSLKPEDTALYYCALRTLNNGGIFLLNSPSSFHYWGQGTQVTVSS
notes: source: E. coli WK6, periplasmic extract, purified (Ni-NTA)
B2: NbFedF6 (VHH)
VHH: QVQLQESGGGSVQAGGSLRLSCAASGYTSGRDSMGWFRQAPGKEREGVACIDTSGIVNYADSVKGRFTISQDSAKKTLYLEMNSLKPEDTALYSCATGPFVYGRGCLGQAFYSYWGQGTQVTVSS
notes: source: E. coli WK6, periplasmic extract, purified (Ni-NTA); not shown: His6, C-terminal, kept
B3: NbFedF7 (VHH)
VHH: QVQLQESGGGSVQAGGSLRLSCTASGYTYRKYCMGWFRQAPGKEREGVACINSGGGTSYYADSVKGRFTISQDNAKDTVFLRMNSLKPEDTAIYYCALSSNSVCPPGHVAWYNDWGQGTQVTVSS
notes: as for B2
B4: NbFedF9 (VHH)
VHH: QVQLQESGGGSVQAGGSLRLSCAASGYTYSSNCMAWFRQVPGKEREGVASINTRGGITYYADSVKGRFTISRDNAKNTVSLQMNSLKPEDTATYYCAAVREATYSDNRCSVRSYTYDYWGQGTQVTVSS
notes: as for B2

Target: T1, FedF_(15–165), N-terminal lectin domain …
Assay: MST
Conditions: both partners purified

Row | Binder | Kd
1 | B1 | 29 nM
2 | B2 | 3.57 nM
3 | B3 | 5.25 nM
4 | B4 | 1.58 nM
